Kd and koff data for 5 molecules are collected here from publication PMC7113306 (2020).

Several values for one entry are separate records, joined by “and”; a condition that tells them apart may be missing. Equal values may be shown once.

T1: ALK2-Fc (UniProt Q04771 21-123)
T1 chain: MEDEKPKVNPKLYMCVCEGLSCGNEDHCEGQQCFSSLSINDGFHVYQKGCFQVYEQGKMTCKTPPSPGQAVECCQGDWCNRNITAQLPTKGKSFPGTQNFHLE

B1: pro-BMP10 (prodomain-bound BMP10) (complex)
chain 1: SPIMNLEQSPLEEDMSLFGDVFSEQDGVDFNTLLQSMKDEFLKTLNLSDIPTQDSAKVDPPEYMLELYNKFATDRTSMPSANIIRSFKNEDLFSQPVSFNGLRKYPLLFNVSIPHHEEVIMAELRLYTLVQRDRMIYDGVDRKITIFEVLESKGDNEGERNMLVLVSGEIYGTNSEWETFDVTDAIRRWQKSGSSTHQLEVHIESKHDEAEDASSGRLEIDTSAQNKHNPLLIVFSDDQSSDKERKEELNEMISHEQLPELDNLGLDSFSSGPGEEALLQMRSNIIYDSTARIRR
chain 2: NAKGNYCKRTPLYIDFKEIGWDSWIIAPPGYEAYECRGVCNYPLAEHLTPTKHAIIQALVHLKNSQKASKACCVPTKLEPISILYLDKGVVTYKFKYEGMAVSECGCR
modifications: furin-processed; prodomain non-covalently bound to the disulfide-linked GF-domain dimer; secreted from HEK EBNA cells. Limits are from the UniProt PROPEP and CHAIN features.
B2: pro-BMP9 (prodomain-bound BMP9) (complex)
chain 1: KPLQSWGRGSAGGNAHSPLGVPGGGLPEHTFNLKMFLENVKVDFLRSLNLSGVPSQDKTRVEPPQYMIDLYNRYTSDKSTTPASNIVRSFSMEDAISITATEDFPFQKHILLFNISIPRHEQITRAELRLYVSCQNHVDPSHDLKGSVVIYDVLDGTDAWDSATETKTFLVSQDIQDEGWETLEVSSAVKRWVRSDSTKSKNKLEVTVESHRKGCDTLDISVPPGSRNLPFFVVFSNDHSSGTKETRLELREMISHEQESVLKKLSKDGSTEAGESSHEEDTDGHVAAGSTLARRKR
chain 2: SAGAGSHCQKTSLRVNFEDIGWDSWIIAPKEYEAYECKGGCFFPLADDVTPTKHAIVQTLVHLKFPTKVGKACCVPTKLSPISVLYKDDMGVPTLKYHYEGMSVAECGCR
B3: BMP10 GF-domain (bone morphogenetic protein 10 growth factor domain) (ligand)
chain: B1 chain 2
B4: BMP9 GF-domain (bone morphogenetic protein 9 growth factor domain) (ligand)
chain: B2 chain 2
B5: BMP6-GF WT (protein)
chain: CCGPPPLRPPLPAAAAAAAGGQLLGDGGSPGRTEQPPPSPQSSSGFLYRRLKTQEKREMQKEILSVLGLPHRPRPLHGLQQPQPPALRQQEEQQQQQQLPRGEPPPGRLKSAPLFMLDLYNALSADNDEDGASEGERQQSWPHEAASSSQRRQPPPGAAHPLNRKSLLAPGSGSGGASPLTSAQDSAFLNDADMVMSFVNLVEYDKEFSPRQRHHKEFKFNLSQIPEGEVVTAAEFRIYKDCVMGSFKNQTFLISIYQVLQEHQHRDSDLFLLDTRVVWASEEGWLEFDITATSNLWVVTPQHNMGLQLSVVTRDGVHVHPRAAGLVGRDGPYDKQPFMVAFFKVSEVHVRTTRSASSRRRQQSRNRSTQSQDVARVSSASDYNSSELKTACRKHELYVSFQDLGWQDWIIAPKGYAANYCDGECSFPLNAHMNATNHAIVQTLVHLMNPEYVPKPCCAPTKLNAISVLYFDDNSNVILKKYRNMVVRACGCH
modifications: disulfide-linked GF-domain homodimer. The text gives no BMP6 construct, source or limits (named only in a figure), so the human mature chain is assumed.

T3 sequence (P37023 22-118): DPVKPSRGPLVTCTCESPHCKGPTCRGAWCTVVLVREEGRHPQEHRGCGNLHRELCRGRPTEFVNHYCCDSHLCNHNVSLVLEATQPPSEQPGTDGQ

One assay deals with T2, ALK1-Fc (ALK1 extracellular domain-Fc fusion protein) (UniProt P37023 22-118). Briefly: SPR. A general note: In SPR one partner is held on a chip, and binding of the other changes the refractive index at the surface.
T2 sequence (P37023 22-118): as above
In general, Kd refers to a measure of binding affinity in units of concentration. On to B1, for which the Kd is 18.7 pM and 11.2 pM.

For the molecule B2, the Kd is 39.2 pM and 61.2 pM.

The next assay concerns the target T3, ALK1 extracellular domain (ALK1 ECD) (human, UniProt P37023 22-118). The assay is described as follows: SPR.
In turn, B1 registered a Kd of 17 pM.

Take B3: the Kd was 55.7 pM.

With B4, the affinity, expressed as Kd, was 71.6 pM.

Consider B2, for which the Kd worked out at 92.9 pM.

For a further assay, the target named is T1, ALK2-Fc. The assay is described as follows: SPR.
B2 registered a Kd of 86200 pM.

B5 registered a Kd of 19200 pM.

In another assay the target is T2, ALK1-Fc (ALK1 extracellular domain-Fc …). Briefly: SPR. This is another data set of the same source.
One may read the koff as the rate constant with which the complex falls apart. A low value points to slow dissociation. B1: the koff is 3.44e-05 s⁻¹.

Regarding B3, the off-rate constant (koff) amounted to 5.31e-05 s⁻¹.

Molecule B4 had a koff of 6.19e-05 s⁻¹.

B2 came in with a koff of 4.84e-05 s⁻¹.

For the next assay, the target named is T3, ALK1 extracellular domain (ALK1 ECD). The assay is described as follows: SPR. This is another data set of the same source.
Molecule B1 had a koff of 5.63e-05 s⁻¹.

B3 showed a koff of 8.5e-05 s⁻¹.

As to B4, the koff stood at 8.37e-05 s⁻¹.

Regarding B2, the koff is 8.46e-05 s⁻¹.
